# From patent US20240041978A1, “LA PROTEIN AS A NOVEL REGULATOR OF OSTEOCLASTOGENESIS” (The U.S.A., as Represented by the Secretary, Department of …, priority 2021, published 2024)
# T1: Anx A5 on PS containing liposomes (Homo sapiens, UniProt P08758)
# T1 sequence (P08758 1-320): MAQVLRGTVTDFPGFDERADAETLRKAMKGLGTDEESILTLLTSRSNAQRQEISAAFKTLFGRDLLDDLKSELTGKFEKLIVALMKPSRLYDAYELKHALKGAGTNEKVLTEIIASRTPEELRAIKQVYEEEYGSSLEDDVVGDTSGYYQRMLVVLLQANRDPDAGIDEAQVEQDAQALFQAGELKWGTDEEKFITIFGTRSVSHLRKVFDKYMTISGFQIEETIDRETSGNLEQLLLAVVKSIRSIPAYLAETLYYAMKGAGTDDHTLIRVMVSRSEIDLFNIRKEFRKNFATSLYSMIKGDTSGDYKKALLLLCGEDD
# B1: recombinant La: recombinant La, species not specified at the place; 40 nM FL La in HA0-RBC assay (protein, UniProt P05455 1-408, looked up)
# Lupus La protein: MAENGDNEKMAALEAKICHQIEYYFGDFNLPRDKFLKEQIKLDEGWVPLEIMIKFNRLNRLTTDFNVIVEALSKSKAELMEISEDKTKIRRSPSKPLPEVTDEYKNDVKNRSVYIKGFPTDATLDDIKEWLEDKGQVLNIQMRRTLHKAFKGSIFVVFDSIESAKKFVETPGQKYKETDLLILFKDDYFAKKNEERKQNKVEAKLRAKQEQEAKQKLEEDAEMKSLEEKIGCLLKFSGDLDDQTCREDLHILFSNHGEIKWIDFVRGAKEGIILFKEKAKEALGKAKDANNGNLQLRNKEVTWEVLEGEVEKEALKKIIEDQQESLNKWKSKGRRFKGKGKGNKAAQPGSGKGKVQFQGKKTKFASDDEHDEHDENGATGPVKRAREETDKEEPASKQQKTENGAGDQ
# Key:
# [1] = test system: human monocyte-derived osteoclasts; assay: Osteoclast fusion assay (number of fusion events, fluorescence microscopy); format: cell-based; conditions: recombinant protein ~40 nM added end of day 2 post-RANKL, overnight
# Procedure: Osteoclasts: Elutriated monocytes from healthy donors were obtained. Cells were plated at 2.9×10^5 per cm^2 in 35 mm dishes with polymer coverslip bottoms (Ibidi #81156) for imaging or 35 mm or 10 cm dishes for biochemical experiments in complete media [α-MEM supplemented with 10% Fetal Bovine Serum (FBS) and penicillin-streptomycin-L-glutamine (Gibco Invitrogene #12571063; #26140079 and #10378016, respectively)]. Monocytes were differentiated to M2 macrophages in the presence of 100 ng/ml M-CSF for 6 days and then differentiated with 100 ng/ml M-CSF and 100 ng/ml RANKL for 3 days unless indicated otherwise. RAW 264.7 cells (ATCC, Manassas, VA, #TIB-71) were maintained in DMEM supplemented with 10% FBS to a maximum of 8 passages. RAW 264.7 cells were differentiated to osteoclasts in the presence of 100 ng/ml murine RANKL for 5 days. To separate unfused mononucleated and fused, multinucleated RAW 264.7 cells into separate fractions, advantage was taken of the much stronger adherence of multinucleated cells to culture dish plastic. After washing in PBS, mixed RAW cultures (following RANKL differentiation) were left in Ca^2+ and Mg^2+ free PBS for 10 minutes at room temperature. Culture dishes were then tapped on the lab bench and a large portion of unfused, mononucleated RAW cells were released, and these released cells were collected via centrifugation. This process was repeated 2-4 times until dishes were left with a population of primarily fused, multinucleated syncytia. Mononucleated and multinucleated cell fractions were then processed for biochemical or imaging experiments as described below.
# Constructs & Recombinant proteins & Transfection: Recombinant La 1-408, 1-375, 1-375 Q20A_Y24A_D33I, 1-187 and 188-375 were amplified with primers designed with overlapping sequences and inserted between NdeI/HindIII in the V78 pET28A E. coli expression vector, adding to each a N-terminal 6×his affinity tag. La 1-408 was expressed as a recombinant protein in E. coli and purified using IMAC columns by SD Biosciences (San Diego, CA). The remaining constructs were transformed into BL2 (DE3) chemically competent E. coli (Thermo Fisher Scientific) and protein expression was induced with IPTG. Cells were lysed with Bugbuster (Sigma), and 6×his-La proteins were affinity purified using HisPur Cobalt Spin columns (Thermo Fisher Scientific), each according to the manufacturer's instructions. Endotoxin contaminates were depleted from affinity purified 6×his-La proteins using Pierce high-capacity endotoxin removal columns (Thermo Fisher Scientific), according to the manufacturer's instructions. Proteins were then sterile filtered, aliquoted and kept at −80 C.
# Plasmids were introduced into primary osteoclasts at day 2 of RANKL stimulation via jetPRIME (Polyplus Transfection). FLAG-La 1-408, FLAG-La 1-375 and FLAG-La 1-375 Q20A_Y24A_D33I plasmids were a gift of the Maraia Lab (NICHD). Briefly, SSB (UniProt P05455) was inserted between HindIII and BamHI the pFLAG-CMV2 vector (Sigma). “Uncleavable” La was produced by taking the FLAG-La 1-408 plasmid and making two point mutations at amino acids D371A and D374A, abrogating the caspase cleavage sites at the C-terminal region of the protein (Emory Integrated Genomics Core). siRNA were introduced into primary osteoclasts after 1 day of RANKL stimulation via Lipofectamine RNAiMAX (Thermo Fisher Scientific). Non-targeted (Cat #4390843) and SSB-targeted (Cat #4392420_ID:s13469) siRNA were introduced at a concentration of 5 ng/ml (Silencer Select, Ambion).
# Fusion Assays: Osteoclast fusion in the culture systems was evaluated by fluorescence microscopy (Verma et al., J Biol Chem 293, 254-270, doi:10.1074/jbc.M117.809681 (2018)). Briefly, cells were fixed with 4% paraformaldehyde at timepoints of interest, permeabilized with 0.1% TRITON™ X-100 and blocked with 5% FBS. Cells were then stained with phallodin-ALEXAFLURO®488 and Hoechst to label cells' actin cytoskeleton and nuclei, respectively. […]
# human osteoclasts = assay: Synchronized osteoclast membrane fusion after LPC removal; format: cell-based; conditions: recombinant La applied to LPC-synchronized osteoclasts
# Procedure: It was then assessed whether La at the surface of human osteoclasts functions at the cell fusion stage of osteoclastogensis. All cell-cell fusion events in development and tissue maintenance proceed through slow (days), asynchronous differentiation processes that prepare fusion competent cells (Brukman et al., J Cell Biol 218, 1436-1451, doi:10.1083/jcb.201901017 (2019)). Then, PM fusion occurs by the rapid (minutes) progression from the initial formation of hemifusion connections to fusion pores that unite the volumes of two cells (FIG. 3D, top). These steps were decoupled in the formation of multinucleated syncytia using the hemifusion inhibitor lysophosphatidylcholine (LPC) (Verma et al., J Biol Chem 293, 254-270, doi:10.1074/jbc.M117.809681 (2018)). LPC's inverted cone shape is not conducive to the concave geometry of the hemifusion stalk, so ready-to-fuse cells are trapped upstream of hemifusion. After removing LPC, cells undergo synchronized fusion relatively rapidly (within 90 mins), affording the ability to assess the function of proteins specifically in the membrane fusion stage of osteoclast formation decoupled from upstream differentiation processes (FIG. 3D, bottom). Ready-to-fuse, RANKL committed cells were accumulated in the presence of LPC, and then this hemifusion blockade was lifted by washing out LPC. […]
# [2] = test system: HA0-expressing 3T3 fibroblasts and red blood cells; assay: HA0-RBC fusion assay; format: cell-based, mouse, human
# [3] = target: T1, Anx A5 on PS containing liposomes; assay: Liposome binding assay
# Source text: Anx A5 binds to PS containing membranes in a Ca^2+-dependent manner. Recombinant La was introduced alone or along with recombinant Anx A5 to PS containing liposomes and pelleted liposomes by centrifugation to evaluate whether La was enriched with liposomes or in supernatant (FIG. 12C).
# Liposome binding assay: Multilamellar liposomes were formed from pure PC or 9:1 (w/w) mixture of PC and PS. Both lipid compositions were supplemented with 0.5 mol % of lissamine rhodamine phosphatidylethanolamine. To prepare liposomes, lipid stock in benzene/methanol (95:5) was frozen in liquid nitrogen and freeze-dried overnight using SPEEDVAC™ (Savant). Dried lipid was resuspended in aqueous buffer (100 mM NaCl, 10 mM Hepes, pH 7.0) at 1 mM total lipid concentration and vortexed. Proteins and CaCl2 were added to the liposomes and the mixtures were incubated on ice for 30 minutes. To pellet, liposomes were centrifugated at 15,000 g for 20 minutes to pellet, based on rhodamine fluorescence ˜95% of liposomes. Centrifugated samples were then fractionated into a top, liposome-depleted fraction and a bottom fraction containing liposomes and liposome-bound proteins. Fractions were then solubilized via addition of Laemmli buffer (Bio Rad) and separated via SDS-PAGE, as described above. Recombinant La and recombinant Anx A5 were detected via their n-terminal 6×His tag via α-6×His antibody (Abcam) and signals for soluble vs liposome bound protein fractions were evaluated via densitometry. Data were presented as a percentage of protein signal bound to liposomes where: […]
molecule,measurement,setting,value
B1,formation of multinucleated syncytia (osteoclast fusion),[1],promotes osteoclast fusion
same,synchronized osteoclast membrane fusion,human osteoclasts,dramatically promoted
same,HA0-cell bound RBCs that exchanged lipid (hemifusion) or cytoplasmic (fusion pore) probes,[2],none of 872
same,lower activity than fusion mediated by activated HA,[2],at least 100 fold
same,probability of La mediated fibroblast-RBC fusion,"[2]; upper limit by Wilson's method, 40 nM",≤ 0.0044 per cell contact
same,pelleting with liposomes,"[3]; PS containing liposomes, La alone",pelleted poorly
same,pelleting with liposomes,"[3]; PS containing liposomes, La with Anx A5, Ca^2+",pelleted with liposomes
same,pelleting with liposomes,[3]; liposomes lacking PS,neither La nor Anx A5 pelleted
